The target in experiment [1] is Rituximab G2 (galactosylated afucosylated glycoform). Description: SPR, 256 to 8 nM.
In experiment [2] the target is Rituximab G2F (galactosylated fucosylated glycoform). Nature of the experiment: SPR, 256 to 8 nM.
For experiment [3], the target named is soluble human FcγRIIa ectodomain (human) (UniProt P12318). Nature of the experiment: SPR (Biacore T200), mAb on Protein G chip, soluble FcγR ectodomain as analyte.
Experiment [4] deals with soluble human FcγRIIb ectodomain (human) (UniProt P31994). The experiment is described as above.
soluble human FcγRIIb ectodomain (human), sequence (P31994 43-217): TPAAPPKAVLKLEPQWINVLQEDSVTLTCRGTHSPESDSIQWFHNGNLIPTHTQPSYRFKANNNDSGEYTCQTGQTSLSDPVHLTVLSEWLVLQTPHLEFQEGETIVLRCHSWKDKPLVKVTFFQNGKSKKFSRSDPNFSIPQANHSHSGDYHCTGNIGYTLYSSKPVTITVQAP
The target in experiment [5] is soluble human FcγRIIIa ectodomain (human) (UniProt P08637). Described as above.

Six substances from patent US20250188193A1 can be followed below.

tetrameric FcγRIIIA, sequence (P08637 17-208 limits assumed): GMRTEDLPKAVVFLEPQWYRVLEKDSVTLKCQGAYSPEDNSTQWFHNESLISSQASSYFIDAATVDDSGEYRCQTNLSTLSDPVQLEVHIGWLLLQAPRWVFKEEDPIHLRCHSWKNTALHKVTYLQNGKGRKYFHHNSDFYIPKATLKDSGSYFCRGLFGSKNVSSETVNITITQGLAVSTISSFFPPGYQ

In the case of “tetrameric FcγRIIIA (from UniProt P08637 17-208) (receptor)”, in experiment [1], the KD1 worked out at 29.9 nM and the KD2 turned out to be 2.3 nM. In experiment [2], this substance came in with a KD1 of 55.2 nM and a KD2 of 2.29 nM.

As to “human IgG1 Fc variant: Afucosylated (antibody)”, the Kd worked out at 747 nM in experiment [3] and 2220 nM in experiment [4].

Regarding human IgG1 Fc variant: ALIE (antibody), the Kd was 169 nM in experiment [5], 2070 nM in experiment [3] and 3920 nM in experiment [4]. Moreover, the Fold (affinity relative to Wild-type) was 0.5 fold in experiment [3] and 0.8 fold in experiment [4].

As for “human IgG1 Fc variant: Wild-type (antibody)”, the Fold (affinity relative to Wild-type) in experiment [5] and in experiment [3] was 1 fold throughout. Moreover, the Kd in experiment [5] was 740 nM; in experiment [3], 1030 nM; in experiment [4], 3110 nM.

Regarding “human IgG1 Fc variant: GAALIE (antibody)”, the results for the Kd in experiment [5], in experiment [3] and in experiment [4] were 218 nM, 387 nM and 4150 nM, respectively. The values for the Fold (affinity relative to Wild-type) in experiment [3] and in experiment [4] were 2.7 fold and 0.8 fold, respectively.

As for “human IgG1 Fc variant printed 'GAALIE' in the second such row of Table 9 (r13) (antibody)”, the Fold (affinity relative to Wild-type) was found to be 0.8 fold in experiment [5], 5.5 fold in experiment [3] and 1.1 fold in experiment [4]. Also, the Kd in experiment [5] stood at 903 nM; in experiment [3] it was 186 nM; in experiment [4], 2890 nM.
